Data as given in patent US8530168B2, “Fusion protein comprising a Caspase domain and a nuclear hormone receptor binding domain and methods and uses thereof” (Helmholtz Zentrum Munich Deutsches Forschungszentrum fuer …, priority 2007, dated 2013).

B1: HAFas-ER(T2): HA epitope, transmembrane and intracellular domain of murine Fas (135-305) fused to ER(T2); planned positive control (protein)
chain: MGYPYDVPDYATSNTNCRKQSPRNRLWLLTILVLLIPLVFIYRKYRKRKCWKRRQDDPESRTSSRETIPMNASNLSLSKYIPRIAEDMTIQEAKKFARENNIKEGKIDEIMHDSIQDTAEQKVQLLLCWYQSHGKSDAYQDLIKGLKKAECRRTLDKFQDMVQKDLGKSTPDTGNENEGQCLVEPSAGDMRAANLWPSPLMIKRSKKNSLALSLTADQMVSALLDAEPPILYSEYDPTRPFSEASMMGLLTNLADRELVHMINWAKRVPGFVDLTLHDQVHLLECAWLEILMIGLVWRSMEHPVKLLFAPNLLLDRNQGKCVEGMVEIFDMLLATSSRFRMMNLQGEEFVCLKSIILLNSGVYTFLSSTLKSLEEKDHIHRVLDKITDTLIHLMAKAGLTLQQQHQRLAQLLLILSHIRHMSNKGMEHLYSMKCKNVVPLYDLLLEAADAHRLHAPTSRGGASVEETDQSHLATAGSTSSHSLQKYYITGEAEGFPATA
modifications: fusion protein HAFas-ER(T2)
notes: planned positive control
B2: MFas-ER(T2): membrane-targeting signal peptide, transmembrane and intracellular domain of murine Fas fused to ER(T2); planned positive control (protein)
chain: MLWIWAVLPLVLAGSQLRVHTTSNTNCRKQSPRNRLWLLTILVLLIPLVFIYRKYRKRKCWKRRQDDPESRTSSRETIPMNASNLSLSKYIPRIAEDMTIQEAKKFARENNIKEGKIDEIMHDSIQDTAEQKVQLLLCWYQSHGKSDAYQDLIKGLKKAECRRTLDKFQDMVQKDLGKSTPDTGNENEGQCLVEPSAGDMRAANLWPSPLMIKRSKKNSLALSLTADQMVSALLDAEPPILYSEYDPTRPFSEASMMGLLTNLADRELVHMINWAKRVPGFVDLTLHDQVHLLECAWLEILMIGLVWRSMEHPVKLLFAPNLLLDRNQGKCVEGMVEIFDMLLATSSRFRMMNLQGEEFVCLKSIILLNSGVYTFLSSTLKSLEEKDHIHRVLDKITDTLIHLMAKAGLTLQQQHQRLAQLLLILSHIRHMSNKGMEHLYSMKCKNVVPLYDLLLEAADAHRLHAPTSRGGASVEETDQSHLATAGSTSSHSLQKYYITGEAEGFPATA
modifications: fusion protein MFas-ER(T2)
notes: membrane-targeting signal peptide, transmembrane and intracellular domain of murine Fas fused to ER(T2); planned positive control

What was measured:
[1] = system: M5/N9 cells expressing myrCasp8-ER(T2); assay: Ligand dose response, MTT assay, in cells expressing myrCasp8-ER(T2); type: cell-based, murine; settings: 48 hours, data not shown
Method: (b) Transient cotransfection of a β-galactosidase reporter with a Cre-ER(T2), myrCasp8-ER(T2), or Casp9-ER(T2) expression plasmid into murine M5/N9 (black columns), human HeLa (grey columns) or zebrafish Pac2 (open columns) cells. 12 h following transfection, cells were cultured for 36 h with 4-OH-tamoxifen at 10^−8 M and the activity of β-galactosidase in cell lysates was determined. Values obtained from transfections of the Cre-ER(T2) vector were defined as reference.
To quantify 4-OH-tamoxifen-inducible cell death, we applied the colorimetric MTT assay (Mossman, J. Immunol. Methods, 65, 55 (1983)) allowing the quantification of cell survival. Cells (4·10^3) were plated on 96-well plates. The assay was carried out in three replicas for each sample treated with and without 4-OH-tamoxifen. After 12 h, medium was replaced either with fresh medium or with medium supplemented with 10^−8 M 4-OH-tamoxifen. […] The crystals were dissolved in 150 μl 0.04 N HCl/isopropanol to give a homogeneous blue solution suitable for absorbance measurement at a wavelength of 570 nm on the Synergy™ HT Multi-Detection Microplate Reader (BioTek).
Cell viability was determined following 48 hours of incubation with the respective ligand at concentrations ranging from 10^−6 M to 10^−12 M by using the MTT assay. […]

MEF5/N9 cells [2] = assay: Transient cotransfection of ER(T2) fusion expression vectors with β-galactosidase reporter; β-galactosidase activity in lysates; type: cell-based, mouse; settings: 10^−8 M 4-OH-tamoxifen, 48 h; relative to Cre-ER(T2) without 4-OH-tamoxifen
Method: The transformed mouse embryonic fibroblast cell line MEF5/N9 (Schwenk et al., Nucleic Acids Research, 26(6) 1427-1432 (1998)) was obtained from Michel Aguet (University of Zurich, Switzerland). The cells were grown in DMEM medium (Life Technologies) supplemented with 2 mM […] and 10% fetal calf serum at 37° C., 5% CO2 in humid atmosphere and passaged upon trypsinization. One day before transient transfection 4·10^4 cells were plated into a 24-well plate (Falcon). For the transient transfection of MEF5/N9 cells with plasmids, each well received into 500 μl of medium a total amount of 150 ng or 200 ng supercoiled plasmid DNA complexed before with the FuGene6 transfection reagent (Roche Diagnostics GmbH, Mannheim, Germany) according to the manufacturer's protocol. Each 150 ng or 200 ng DNA preparation (FIG. 2 sample 1 to 11) contained 100 ng of the β-Galactosidase expression vector pCMV-β-gal-pA (pCMVβ, Clontech, FIG. 1G, SEQ ID NO: 56), and 100 ng of the fusion ER(T2) expression vectors to be tested (FIG. 2 sample 3-7, 10-11) and the control plasmids (FIG. 2 sample 1-3), except for the samples with the plasmids pCAG-Casp9full-ER(T2)-bpA (FIG. 2 sample 8) and pCAG-Casp9trunc-ER(T2)-bpA (FIG. 2 sample 9), respectively, that received 50 ng of the test vector. For each sample to be tested four individual wells were transfected. Five hours after the addition of the DNA preparations each well received additional 500 μl of growth medium. The following day, the medium of two wells of each sample was replaced by fresh medium. The other two wells received medium containing 10^−8 M 4-hydroxy-tamoxifen (Sigma). 48 hours after induction with 4-OH-tamoxifen, the cells of each well were lysed with 200 μl lysate reagent supplemented with protease inhibitors (Roche Diagnostics GmbH). The lysates were centrifuged and 50 μl were used to determine the β-galactosidase activities using the β-galactosidase reporter gene assay (Roche Diagnostics GmbH) according to the manufacturer's protocol in a microplate luminometer (Berthold Detection Systems GmbH). The mean value and standard deviation of the samples was calculated from the β-galactosidase RLU values obtained from the two transfected wells of each sample. The relative β-galactosidase activity was obtained by comparison to the negative control (pCAG-Cre-ER(T2)-bpA) without 4-OH-tamoxifen.
To investigate the cell death effect of the different ER(T2) fusion constructs quantitatively, we performed transient cotransfections of the ER(T2) fusion protein expression vectors together with a fixed amount of a reporter plasmid coding for β-galactosidase in MEF5/N9 fibroblast cells. Transfected cells were treated 12 hours after transfection with 4-OH-tamoxifen at a concentration of 10^−8 M. Following 48 hours of 4-OH-tamoxifen induction, the cells from the various samples were lysed and the activity of β-galactosidase in the lysates was determined by a chemiluminescence assay and expressed in “Relative Light Units” (RLU) (FIG. 2). As positive controls for 4-OH-tamoxifen-inducible cell death, we prepared samples transfected with the constructs pCAG-HAFas-ER(T2) or pCAG-MFas-ER(T2) together with the reporter plasmid and treatment with 4-OH-tamoxifen. As negative control for this assay served samples which received the reporter plasmid together with the expression vector pCAG-Cre-ER(T2) and that were treated with 4-OH-tamoxifen.
To determine the relative activity of the tested ER(T2) fusion constructs inducing apoptosis in the presence of 4-OH-tamoxifen, the RLU values of β-galactosidase activity were divided individually for each sample by the RLU value obtained from the sample which received the plasmid pCAG-Cre-ER(T2) but was not treated with 4-OH-tamoxifen (defined as negative control). The relative activity of the tested Caspase- or bax-ER(T2) fusion proteins was then compared to the negative control for 4-OH-tamoxifen-dependent cell death defined as an activity of 1.

MEF5/N9 cells [3] = assay: Visible phenotypic changes / viability of stably transfected MEF5/N9 clones on 4-OH-tamoxifen treatment; type: cell-based, mouse; settings: 10^−8 M 4-OH-tamoxifen, 24 h
Method: (§1) To generate stably transfected MEF5/N9 cells, 2·10^6 cells were coelectroporated with 32 μg ER(T2) fusion plasmid DNA linearised with ScaI and 8 μg pPgk-hygro-pA plasmid DNA linearised with XhoI and plated into two 96-well plates. The cells were grown in DMEM medium (Invitrogen) supplemented with 2 mM Glutamine and 10% fetal calf serum at 37° C., 5% CO2 in humid atmosphere, and passaged upon trypsinization. Two days after transfection the medium was supplemented with 250 U/ml of hygromycin (Calbiochem) for the selection of stable integrants. Upon the growth of resistant colonies these were individually expanded in the presence of hygromycin.
To examine 4-OH-tamoxifen-dependent cell death, 1·10^5 MEF5/N9 cells expressing ER(T2) fusion proteins were plated into each well of a six-well plate. The following day, for each sample the medium in two of four individual wells were replaced with medium supplemented with 10^−8 M 4-hydroxy-tamoxifen. 24 hours after induction with 4-OH-tamoxifen, cells were photographed through a Leica DMI6000B fluorescence microscope with phase contrast either at 10-fold or 20-fold magnification.
Since the responsiveness of the clones, transfected with the same construct, to 4-OH-tamoxifen differed only slightly from each other, only the results obtained from one clone for each construct are shown in the figure.

MEF5/N9 cells [4] = assay: MTT cytotoxicity assay of stably transfected MEF5/N9 clones; type: cell-based, mouse; settings: 10^−8 M 4-OH-tamoxifen, 48 h
Method: as §1
To quantify 4-OH-tamoxifen-inducible cell death, we applied the colorimetric MTT assay (Mossman, J. Immunol. Methods, 65, 55 (1983)) allowing the quantification of cell survival. Cells (4·10^3) were plated on 96-well plates. The assay was carried out in three replicas for each sample treated with and without 4-OH-tamoxifen. After 12 h, medium was replaced either with fresh medium or with medium supplemented with 10^−8 M 4-OH-tamoxifen. Following 48 h of 4-OH-tamoxifen treatment, sterile filtered MTT reagent in PBS (Sigma) was added at the concentration of 0.5 mg/ml. Incubation occurred for 4 hours at 37° C. With ongoing reaction time, dark violet MTT formazan crystals appeared on the bottom of the wells containing living cells. The crystals were dissolved in 150 μl 0.04 N HCl/isopropanol to give a homogeneous blue solution suitable for absorbance measurement at a wavelength of 570 nm on the Synergy™ HT Multi-Detection Microplate Reader (BioTek).

MEF5/N9 cells [5] = assay: Transient cotransfection of ER(T2) fusion expression vectors with β-galactosidase reporter; β-galactosidase activity in lysates; type: cell-based, mouse; settings: no 4-OH-tamoxifen; transient transfection 50 or 100 ng vector; relative to Cre-ER(T2) without 4-OH-tamoxifen

Molecule	ligand concentration required to induce cell death [1]	relative β-galactosidase activity in presence of 4-OH-tamoxifen compared to the negative control (MEF5/N9 cells [2])	4-OH-tamoxifen-dependent cell death, phenotype of stable clones (MEF5/N9 cells [3])	cell viability in the presence of 4-OH-tamoxifen (MTT) (MEF5/N9 cells [4])	basal toxicity: relative β-galactosidase activity compared to the negative control in absence of 4-OH-tamoxifen (MEF5/N9 cells [5])
C[C@]12CC[C@@H]3c4ccc(O)cc4CC[C@H]3[C@@H]1CC[C@@H]2O [E2, 17-β-estradiol]	≥ 10^−7 M	–	–	–	–
B1	–	23%	not affected by the treatment with 4-OH-tamoxifen	not affected by treatment with 4-OH-tamoxifen	52%
B2	–	26%	not affected by the treatment with 4-OH-tamoxifen	not affected by treatment with 4-OH-tamoxifen	60%
